Reference: paper PMC10397247

Columns and labels:
Core_NIII-es_KKEK = target: T1, Core_NIII-es_KKEK; assay: two-hybrid library CCmax; settings: mean of both orientations;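 also: natural log of median RNA to DNA barcode read ratio; higher means stronger binding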
T1 chain: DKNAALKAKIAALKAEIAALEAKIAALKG

4H2187-AA = target: T2, 4H2187-AA; assay: two-hybrid library CCmax; settings: mean of both orientations;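 also: natural log of median RNA to DNA barcode read ratio; higher means stronger binding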
T2 chain: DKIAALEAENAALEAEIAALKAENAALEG

4H2758-AA = target: T3, 4H2758-AA; assay: two-hybrid library CCmax; settings: mean of both orientations;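 also: natural log of median RNA to DNA barcode read ratio; higher means stronger binding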
T3 chain: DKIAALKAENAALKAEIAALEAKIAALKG

4H816-AA = target: T4, 4H816-AA; assay: two-hybrid library CCmax; settings: mean of both orientations;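 also: natural log of median RNA to DNA barcode read ratio; higher means stronger binding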
T4 chain: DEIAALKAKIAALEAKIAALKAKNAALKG

4H2873-AA = target: T5, 4H2873-AA; assay: two-hybrid library CCmax; settings: mean of both orientations;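 also: natural log of median RNA to DNA barcode read ratio; higher means stronger binding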
T5 chain: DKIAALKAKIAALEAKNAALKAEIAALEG

4H3940-AA = target: T6, 4H3940-AA; assay: two-hybrid library CCmax; settings: mean of both orientations;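 also: natural log of median RNA to DNA barcode read ratio; higher means stronger binding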
T6 chain: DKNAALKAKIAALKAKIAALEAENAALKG

4H3625-AA = target: T7, 4H3625-AA; assay: two-hybrid library CCmax; settings: mean of both orientations
T7 chain: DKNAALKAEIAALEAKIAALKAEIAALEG

4H510-AA = target: T8, 4H510-AA; assay: two-hybrid library CCmax; settings: mean of both orientations
T8 chain: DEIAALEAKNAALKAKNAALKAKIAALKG

4H233-AA = target: T9, 4H233-AA; assay: two-hybrid library CCmax; settings: mean of both orientations
T9 chain: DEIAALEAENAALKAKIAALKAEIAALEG

4H2985-AA = target: T10, 4H2985-AA; assay: two-hybrid library CCmax; settings: mean of both orientations
T10 chain: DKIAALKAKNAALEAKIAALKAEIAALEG

4H278-AA = target: T11, 4H278-AA; assay: two-hybrid library CCmax; settings: mean of both orientations
T11 chain: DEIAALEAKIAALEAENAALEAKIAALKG

4H2512-AA = target: T12, 4H2512-AA; assay: two-hybrid library CCmax; settings: mean of both orientations
T12 chain: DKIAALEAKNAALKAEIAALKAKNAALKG

4H87-AA = target: T13, 4H87-AA; assay: two-hybrid library CCmax; settings: mean of both orientations
T13 chain: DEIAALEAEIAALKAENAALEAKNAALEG

4H2687-AA = target: T14, 4H2687-AA; assay: two-hybrid library CCmax; settings: mean of both orientations
T14 chain: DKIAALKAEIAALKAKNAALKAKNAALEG

4H1985-AA = target: T15, 4H1985-AA; assay: two-hybrid library CCmax; settings: mean of both orientations
T15 chain: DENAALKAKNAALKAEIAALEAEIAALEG

4H1068-AA = target: T16, 4H1068-AA; assay: two-hybrid library CCmax
T16 chain: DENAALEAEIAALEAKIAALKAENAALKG

4H1350-AA = target: T17, 4H1350-AA; assay: two-hybrid library CCmax; settings: mean of both orientations
T17 chain: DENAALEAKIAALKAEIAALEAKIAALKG

4H775-AA = target: T18, 4H775-AA; assay: two-hybrid library CCmax; settings: mean of both orientations
T18 chain: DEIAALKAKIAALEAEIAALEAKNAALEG

4H3409-AA = target: T19, 4H3409-AA; assay: two-hybrid library CCmax; settings: mean of both orientations
T19 chain: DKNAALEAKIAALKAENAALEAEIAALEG

4H390-AA = target: T20, 4H390-AA; assay: two-hybrid library CCmax; settings: mean of both orientations
T20 chain: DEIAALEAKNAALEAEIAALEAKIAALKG

4H2705-AA = target: T21, 4H2705-AA; assay: two-hybrid library CCmax; settings: mean of both orientations
T21 chain: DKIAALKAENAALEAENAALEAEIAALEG

4H1710-AA = target: T22, 4H1710-AA; assay: two-hybrid library CCmax; settings: mean of both orientations
T22 chain: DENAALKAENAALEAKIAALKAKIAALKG

4H3134-AA = target: T23, 4H3134-AA; assay: two-hybrid library CCmax; settings: mean of both orientations
T23 chain: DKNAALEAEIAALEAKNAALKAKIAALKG

4H2646-AA = target: T24, 4H2646-AA; assay: two-hybrid library CCmax; settings: mean of both orientations
T24 chain: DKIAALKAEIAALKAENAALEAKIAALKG

4H121-AA = target: T25, 4H121-AA; assay: two-hybrid library CCmax; settings: mean of both orientations
T25 chain: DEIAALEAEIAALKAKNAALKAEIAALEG

Core_NNNN-es_KKKK = target: T26, Core_NNNN-es_KKKK; assay: two-hybrid library CCmax; settings: mean of both orientations
T26 chain: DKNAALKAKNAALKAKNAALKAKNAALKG

Core_NNIN-es_KEKK = target: T27, Core_NNIN-es_KEKK; assay: two-hybrid library CCmax; settings: mean of both orientations
T27 chain: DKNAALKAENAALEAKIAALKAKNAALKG

Core_NNNN-es_KKKE = target: T28, Core_NNNN-es_KKKE; assay: two-hybrid library CCmax; settings: mean of both orientations
T28 chain: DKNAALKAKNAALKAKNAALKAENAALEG

P7SH = target: T29, P7SH; assay: two-hybrid library CCNG1
T29 chain: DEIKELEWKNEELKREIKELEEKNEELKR

P8SH = target: T30, P8SH; assay: two-hybrid library CCNG1
T30 chain: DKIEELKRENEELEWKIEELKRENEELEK

P6SH [1] = target: T31, P6SH; assay: two-hybrid library CCNG1
T31 chain: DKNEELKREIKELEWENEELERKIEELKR

P5SH = target: T32, P5SH; assay: two-hybrid library CCNG1
T32 chain: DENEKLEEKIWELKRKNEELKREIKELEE

P6SH [2] = target: T31, P6SH; assay: two-hybrid library CCmax; settings: mean of both orientations
4H3858-bA = target: T33, 4H3858-bA; assay: two-hybrid library CCNG1
T33 chain: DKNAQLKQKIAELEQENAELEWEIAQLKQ

4H3628-bA = target: T34, 4H3628-bA; assay: two-hybrid library CCNG1
T34 chain: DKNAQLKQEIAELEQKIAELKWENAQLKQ

4H1338-bA = target: T35, 4H1338-bA; assay: two-hybrid library CCNG1
T35 chain: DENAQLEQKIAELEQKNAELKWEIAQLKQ

4H1222-bA = target: T36, 4H1222-bA; assay: two-hybrid library CCNG1
T36 chain: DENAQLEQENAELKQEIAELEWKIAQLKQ

4H584-bA = target: T37, 4H584-bA; assay: two-hybrid library CCNG1
T37 chain: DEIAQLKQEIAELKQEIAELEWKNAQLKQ

4H1544-bA = target: T38, 4H1544-bA; assay: two-hybrid library CCNG1
T38 chain: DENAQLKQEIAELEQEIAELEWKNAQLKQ

4H3974-bA = target: T39, 4H3974-bA; assay: two-hybrid library CCNG1
T39 chain: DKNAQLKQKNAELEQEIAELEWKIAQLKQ

4H1359-bA = target: T40, 4H1359-bA; assay: two-hybrid library CCNG1
T40 chain: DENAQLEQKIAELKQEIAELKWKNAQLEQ

4H3638-bA = target: T41, 4H3638-bA; assay: two-hybrid library CCNG1
T41 chain: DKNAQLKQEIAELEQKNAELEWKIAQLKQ

4H3613-bA = target: T42, 4H3613-bA; assay: two-hybrid library CCNG1
T42 chain: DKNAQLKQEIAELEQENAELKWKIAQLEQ

4H619-bA = target: T43, 4H619-bA; assay: two-hybrid library CCNG1
T43 chain: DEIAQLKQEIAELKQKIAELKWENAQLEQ

4H850-bA = target: T44, 4H850-bA; assay: two-hybrid library CCNG1
T44 chain: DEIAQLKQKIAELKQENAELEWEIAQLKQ

4H1449-bA = target: T45, 4H1449-bA; assay: two-hybrid library CCNG1
T45 chain: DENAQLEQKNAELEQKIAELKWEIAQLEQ

4H1373-bA = target: T46, 4H1373-bA; assay: two-hybrid library CCNG1
T46 chain: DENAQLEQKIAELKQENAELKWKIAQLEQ

4H3631-bA = target: T47, 4H3631-bA; assay: two-hybrid library CCNG1
T47 chain: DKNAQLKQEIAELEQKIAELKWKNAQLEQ

4H570-bA = target: T48, 4H570-bA; assay: two-hybrid library CCNG1
T48 chain: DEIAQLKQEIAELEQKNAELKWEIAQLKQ

4H3129-bA = target: T49, 4H3129-bA; assay: two-hybrid library CCNG1
T49 chain: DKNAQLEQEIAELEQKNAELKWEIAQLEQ

4H3172-bA = target: T50, 4H3172-bA; assay: two-hybrid library CCNG1
T50 chain: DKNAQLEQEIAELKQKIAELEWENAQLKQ

4H1804-bA = target: T51, 4H1804-bA; assay: two-hybrid library CCNG1
T51 chain: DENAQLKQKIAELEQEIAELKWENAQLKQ

4H3414-bA = target: T52, 4H3414-bA; assay: two-hybrid library CCNG1
T52 chain: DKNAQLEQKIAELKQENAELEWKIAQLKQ

4H1899-bA = target: T53, 4H1899-bA; assay: two-hybrid library CCNG1
T53 chain: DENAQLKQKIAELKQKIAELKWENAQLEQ

4H1629-bA = target: T54, 4H1629-bA; assay: two-hybrid library CCNG1
T54 chain: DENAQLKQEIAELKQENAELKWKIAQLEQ

4H1348-bA = target: T55, 4H1348-bA; assay: two-hybrid library CCNG1
T55 chain: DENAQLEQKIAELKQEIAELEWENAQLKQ

4H1710-bA = target: T56, 4H1710-bA; assay: two-hybrid library CCNG1
T56 chain: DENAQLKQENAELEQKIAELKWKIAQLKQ

4H1393-bA = target: T57, 4H1393-bA; assay: two-hybrid library CCNG1
T57 chain: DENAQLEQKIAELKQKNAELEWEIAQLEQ

4H1985-bA = target: T58, 4H1985-bA; assay: two-hybrid library CCNG1
T58 chain: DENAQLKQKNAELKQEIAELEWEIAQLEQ

4H3817-bA = target: T59, 4H3817-bA; assay: two-hybrid library CCNG1
T59 chain: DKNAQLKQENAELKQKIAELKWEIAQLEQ

4H906-bA = target: T60, 4H906-bA; assay: two-hybrid library CCNG1
T60 chain: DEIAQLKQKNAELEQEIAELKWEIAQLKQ

## DENAALEAEIAALEAKIAALKAEIAALEG [Core_NIII-es_EEKE]
Core_NIII-es_KKEK
  interaction score: 2.17

## DENAALEAEIAALEAKIAALKAENAALKG [4H1068-AA]
4H2187-AA
  interaction score: -1.71
4H2758-AA
  interaction score: -1.99
4H816-AA
  interaction score: 0.372
4H2873-AA
  interaction score: -0.197
4H3940-AA
  interaction score: 2.05
4H3625-AA
  interaction score: -0.226
4H510-AA
  interaction score: -1.05
4H233-AA
  interaction score: 0.754
4H2985-AA
  interaction score: -0.0876
4H278-AA
  interaction score: -0.737
4H2512-AA
  interaction score: -1.06
4H87-AA
  interaction score: -0.863
4H2687-AA
  interaction score: 0.562
4H1985-AA
  interaction score: 0.534
4H1068-AA
  interaction score: 0.409
4H1350-AA
  interaction score: 0.695
4H775-AA
  interaction score: -0.238
4H3409-AA
  interaction score: -1.36
4H390-AA
  interaction score: -0.217
4H2705-AA
  interaction score: -1.15
4H1710-AA
  interaction score: -1.11
4H3134-AA
  interaction score: -0.167
4H2646-AA
  interaction score: -0.0619
4H121-AA
  interaction score: -0.866

## DENAALEAENAALEAENAALEAENAALEG [Core_NNNN-es_EEEE]
Core_NNNN-es_KKKK
  interaction score: 1.53

## DENAALEAKNAALKAEIAALEAENAALEG [Core_NNIN-es_EKEE]
Core_NNIN-es_KEKK
  interaction score: 1.32

## DENAALEAENAALEAENAALEAKNAALKG [Core_NNNN-es_EEEK]
Core_NNNN-es_KKKE
  interaction score: 0.962

## DENEKLEEKIWELKRKNEELKREIKELEE [P5SH]
P7SH
  interaction score: -0.619
P8SH
  interaction score: 0.809
P6SH [1]
  interaction score: 1.84
P5SH
  interaction score: -0.706
P6SH [2]
  interaction score: 0.801

## DENAQLEQENAELKQEIAELEWKIAQLKQ [4H1222-bA]
4H3858-bA
  interaction score: -0.31
4H3628-bA
  interaction score: -0.374
4H1338-bA
  interaction score: 0.202
4H1222-bA
  interaction score: 0.532
4H584-bA
  interaction score: -1.36
4H1544-bA
  interaction score: 0.517
4H3974-bA
  interaction score: 0.693
4H1359-bA
  interaction score: -0.0139
4H3638-bA
  interaction score: -0.958
4H3613-bA
  interaction score: -0.452
4H619-bA
  interaction score: -1.01
4H850-bA
  interaction score: -0.2
4H1449-bA
  interaction score: 0.729
4H1373-bA
  interaction score: -0.665
4H3631-bA
  interaction score: 0.222
4H570-bA
  interaction score: 0.341
4H3129-bA
  interaction score: -1.85
4H3172-bA
  interaction score: 0.388
4H1804-bA
  interaction score: -0.0181
4H3414-bA
  interaction score: -0.0927
4H1899-bA
  interaction score: 1.1
4H1629-bA
  interaction score: -0.826
4H1348-bA
  interaction score: 0.605
4H1710-bA
  interaction score: 2.36
4H1393-bA
  interaction score: 0.0501
4H1985-bA
  interaction score: 1.8
4H3817-bA
  interaction score: 1.18
4H906-bA
  interaction score: -0.403
